Target: Francisella tularensis polyphosphate kinase 2 (FtPPK2) (Francisella tularensis subspecies tularensis SCHU S4)
Experiment: crystal structure

Substance “Francisella tularensis polyphosphate kinase 2 (FtPPK2) (enzyme)” has a stoichiometry N of 4.

From publication PMC4748334
